Experimental data: patent US20130117870

What was measured:
Test in all cases: cell_activity
[1] = system: LDLRE4.2 TALEN pair (synthetic construct); conditions: male pig fibroblasts; female 19
[2] = system: GHRHR2.3 TALEN pair (synthetic construct); conditions: mRNA, female pig fibroblasts; male 32.5; puro-free plasmid G-418 29
[3] = system: DMDE7.1 TALEN pair (synthetic construct); conditions: SURVEYOR, pig fibroblasts; 27 in Table 1
[4] = system: LDLRE2.1 (LDLR2.1) TALEN pair (synthetic construct); conditions: mRNA, pig fibroblasts, 30 C; plasmid 14.4-21.5
[5] = system: ACAN12 TALEN pair (+231) (synthetic construct); conditions: +231 scaffold in fibroblasts; indels confirmed in bovine embryos (Table 2)
[6] = system: ACAN12 TALEN pair (+63) (synthetic construct); conditions: SURVEYOR, bovine fibroblasts; 29 in Table 1
[7] = system: p65 (p6511.1) TALEN pair (synthetic construct); conditions: 10 ng/ul mRNA each, porcine zygotes
[8] = system: DMDE6 TALEN pair (synthetic construct); conditions: pig fibroblasts

porcine LDLR exon 4 target
activity (% modified (day 3)) [1]: 20

porcine GHRHR target
activity (% modified (day 3)) [2]: 35

porcine DMD exon 7 target
activity (% chromosomes cleaved) [3]: 38

CTCCTACAAGTGGATTGTGATGGGAACACCGAGTGCAAGGACGGGTCCG (double strand) [porcine LDLR exon 2 target]
activity (% modified (day 3)) [4]: 34

bovine ACAN12 target
activity (% chromosomes cleaved) [5]: < 1
activity (% chromosomes cleaved) [6]: 25

porcine RELA (p65) target
activity (% embryos with indels (16/56)) [7]: 29

porcine DMD exon 6 target
activity (% modified (day 3)) [8]: 25
